Source: patent publication US20030131383A1 (INTERLINK BIOTECHNOLOGIES, published 2003)
No end group written: not given here.

How the values were obtained:
Assay in all cases: cell-based or functional assay
[1] = target: Chymotrypsin
[2] = target: Carboxypeptidase
[3] = target: T1, Papain (UniProt P00784 134-345)
T1 sequence (looked up): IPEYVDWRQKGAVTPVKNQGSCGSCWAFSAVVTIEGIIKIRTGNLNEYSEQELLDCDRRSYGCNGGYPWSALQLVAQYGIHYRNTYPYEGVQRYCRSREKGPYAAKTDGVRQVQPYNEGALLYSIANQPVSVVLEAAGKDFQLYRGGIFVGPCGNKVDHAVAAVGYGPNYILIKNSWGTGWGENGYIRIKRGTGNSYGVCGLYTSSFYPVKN

B1: Rev4 (reverse indolicidin), C-terminal amide form (peptide)
peptide: RRWPWWPWKWPLI-NH2
% Inhibition of Proteolysis by Rev4 at 2.5 µg/ml [1]: 16% | % Inhibition of Proteolysis by Rev4 at 5 µg/ml [1]: 42% | % Inhibition of Proteolysis by Rev4 at 10 µg/ml [1]: 75% | % Inhibition of Proteolysis by Rev4 at 20 µg/ml [1]: 97% | % Inhibition of Proteolysis by Rev4 at 2.5 µg/ml [2]: 58% | % Inhibition of Proteolysis by Rev4 at 5 µg/ml [2]: 92% | % Inhibition of Proteolysis by Rev4 at 10 µg/ml [2]: 100% | % Inhibition of Proteolysis by Rev4 at 20 µg/ml [2]: 100% | % Inhibition of Proteolysis by Rev4 at 2.5 µg/ml [3]: 29% | % Inhibition of Proteolysis by Rev4 at 5 µg/ml [3]: 72% | % Inhibition of Proteolysis by Rev4 at 10 µg/ml [3]: 93% | % Inhibition of Proteolysis by Rev4 at 20 µg/ml [3]: 99%
